Experimental data reported in publication PMC314469, “Protein Interaction Networks by Proteome Peptide Scanning” (PLoS Biology, 2004).

T1: Abp1 SH3 (ABP1_YEAST), P15891
T1 chain: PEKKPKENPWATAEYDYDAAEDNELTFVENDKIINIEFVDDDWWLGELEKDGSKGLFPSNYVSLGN


Molecular target: T1, Abp1 SH3 (ABP1_YEAST), P15891
Assay: SPOT array

| normalised SPOT signal, Boehringer light units (BLU); mean over the file's lines of this peptide | Binder |
| --- | --- |
| 101 | DGYTRFHDETPAKP [YER027C 294-307] |
| 60 | DQNQERKNSVPKKP [YHR004C 68-81] |
| 105 | DGGMAFNPDPKKP [YER095W 332-344] |
| 440 | DLKSRVLPHLKKP [YNL241C 60-72] |
| 120 | DDLETYVPHKKRP [YOL084W 269-281] |
| 85.7 | DIEMKDVSSKPSKP [YPR070W 510-523] |
| 62.8 | DEGYRESELPPTKP [YGR013W 516-529] |
| 47.1 | DGTAAAGPLDLKP [YCR077C 93-105] |
| 6430 | DGKVSPPPIRNRP [YPL150W 616-628] |
| 95.6 | DESTVNEPKTRRP [YLR417W 380-392] |
| 112 | DESFTASDAVPKKP [YPR121W 328-341] |
| 183 | DKKIGSMAINPMRP [YDL156W 333-346] |
| 377 | DKTRSSLHFKPMRP [YNL023C 749-762] |
| 74.1 | DQVPVTTQLPPIKP [YER159C 3-16] |
| 230 | DMFDFLIDVVPRRP [YOR358W 226-239] |
| 90.3 | DEEDDEDPVSPKP [YGL197W 684-696] |
| 23.2 | DLPEYLLPPDLKP [YDR477W 309-321] |
| 158 | DGKPTATPSPFRP [YMR153W 198-210] |
| 131 | DILDDLSSQKPQKP [YJR033C 1330-1343] |
| 86.6 | DLNNLKHPSKGRP [YMR304W 152-164] |

| normalised SPOT signal, Boehringer light units (BLU); mean over the file's lines of this peptide | Binder |
| --- | --- |
| 169 | DDGTFSIYSIPSKP [YPL100W 471-484] |
| 91 | DNIAEYVPDKKRP [YMR266W 274-286] |
| 2860 | DKQLIWHKSKPVKP [YBL005W-B 1588-1601] |
| 1000 | DKYSTLRPGIPLKP [YDL164C 380-393] |
| 98 | DHPKLKSPISSKP [YPR186C 218-230] |
| 2060 | DLPRLKWSAIPVRP [YMR265C 218-231] |
| 76 | DLHTHNLHTIPRKP [YNL042W 273-286] |
| 144 | DPQIMDEYSYPGRP [YDR182W 95-108] |
| 66.6 | DKVFIPDPKTGRP [YAL054C 106-118] |
| 33.3 | DHVDIFVPSGGRP [YDL215C 852-864] |
| 171 | DGKTMTKPFVEKP [YLR410W 340-352] |
| 27100 | DLTVLRKPQQLRP [YDR488C 342-354] |
| 25.2 | DASSVELTEVPSKP [YDR464W 561-574] |
| 36.5 | DKKDLDSPIEVKP [YKL092C 848-860] |
| 138 | DFRNPLLPIDNRP [YGL170C 266-278] |
| 132 | DELPKYEDLFPKKP [YKL020C 937-950] |
| 105 | DNARKSEELYPGRP [YAL038W 65-78] |
| 2180 | DMERKMTPALNRP [YDR074W 548-560] |
| 1730 | DKQLIWHKNKPTKP [YBL101W-B 1603-1616] |
| 659 | DSVRYFEPKTRRP [YER090W 132-144] |

| normalised SPOT signal, Boehringer light units (BLU); mean over the file's lines of this peptide | Binder |
| --- | --- |
| 142 | DESFTASDVIPKKP [YOL055C 307-320] |
| 65.6 | DIADLEEPFLPRP [YIL109C 377-389] |
| 37.7 | SVYALSSQDEPIRP [YLR450W 583-596] |
| 58.4 | DDFSEIKSNSPSKP [YOL125W 257-270] |
| 483 | DRRRLLGPAAAKP [YGR158C 5-17] |
| 113 | DSLFTKSLEDPEKP [YBR257W 10-23] |
| 231 | DAGPSFSPLHKKP [YDR096W 741-753] |
| 77.3 | DHGLYNFPSSVRP [YGR271W 1320-1332] |
| 89.2 | DLEFIYDTFHPFKP [YPL009C 301-314] |
| 446 | DDLIRLTVKKPARP [YKL220C 443-456] |
| 84.6 | DLNDSGFPPKRKP [YMR275C 4-16] |
| 18.9 | DGKILPLPKADKP [YGR134W 1092-1104] |
| 122 | DHHNIDIDPLPRRP [YLR299W 80-93] |
| 257 | DIDMPVNPPFRKP [YBL015W 191-203] |
| 68.3 | DNDEEADPSSFKP [YLR087C 1186-1198] |
| 133 | DAENIRVNFVPSKP [YER047C 185-198] |
| 104 | DENEKESRHYPIKP [YMR147W 118-131] |
| 76.2 | DPEPAKASTKPEKP [YNL106C 1102-1115] |
